Assay results as given in paper PMC9975939.
Each block holds one substance with its values, some of them ahead of it.

Key:
[1] = biological target: His-Flag-NDP52 C18, 153, 163, 321S (human) (UniProt Q13137); experiment: native gel or EMSA; blue native PAGE of lysates (30 μg; 20 mM Bis-Tris pH 7.2, 40 mM NaCl, 10% glycerol, 0.5% NP-40) of HeLa PentaKO cells stably expressing NDP52 WT or Mut, immunoblot
[2] = biological target: untagged NDP52 C18, 153, 163, 321S mutant (human) (UniProt Q13137); experiment: native gel or EMSA; blue native PAGE (4–16% NativePAGE gel, Coomassie G-250) of recombinant NDP52 WT and Mut, immunoblot
FIP200-GFP = experiment: bead recruitment assay (confocal imaging of FIP200-GFP on beads); settings: glutathione Sepharose beads coated with GST-4xUb, incubated with untagged NDP52 and FIP200-GFP; read off a plot

stoichiometry N [1]: 2
Substance: His-Flag-NDP52 C18, 153, 163, 321S (from UniProt Q13137 1-446) (natural protein)

stoichiometry N [2]: 2
Substance: untagged NDP52 C18, 153, 163, 321S mutant (from UniProt Q13137 1-446) (natural protein)

percent of parent (FIP200-GFP): 93%
Substance: untagged NDP52 wild type mutant C18S; C153S; C163S; C321S [human] / FIP200-GFP [not stated] chain 1 C18S, chain 1 C153S, chain 1 C163S, chain 1 C321S
